Legend:
[1] = tested on: Spontaneously Hypertensive Rats (SHR); assay: Plasma cGMP in spontaneously hypertensive rats; assay type: in vivo, rat; settings: iv infusion, FIG. 9A
Experimental: All rat experiments are conducted following the Animal Welfare Act and the protocol is approved by the Mayo Clinic Institutional Animal Care and Use Committee (IACUC). […] Rats are included only if they are deemed healthy by the Institutional Veterinarian Department. Investigators who conduct the in vivo study are not blinded to treatments, but biochemical analysis is performed by a different investigator who is blinded to treatment.
On the day of the experiment, SHR rats are anesthetized with inactin (120 mg/kg, intraperitoneal injection, Sigma, St. Louis, MO). Rats are then kept on a heating pad at 38° C. to maintain a normal body temperature for the entire study. Vascular and bladder cannulation procedures are conducted. Briefly, a polyethylene-50 (PE-50) tube catheter is placed into one jugular vein for peptide infusion and another PE-50 tube is placed into the carotid artery for blood pressure (BP) monitoring (Sonometrics, London, Ontario, Canada) and blood sampling. After instrumentation, a 15-minute equilibrium period follows, and a 30-minute pre-infusion period is performed to collect baseline urine samples.
Four blood samples are collected to determine circulating cGMP levels: at baseline, before the end of drug infusion, at the middle of the washout clearance period, and before the end of the washout clearance period. Any blood loss in the rats is replaced with an equal volume of saline. BP is monitored and recorded every 15 minutes beginning after the initiation of peptide infusion. All collected blood are stored at −80° C. until assayed.
For the biochemical analysis, plasma cGMP levels are measured with a cGMP ELISA kit (Enzo Life Sciences, Farmingdale, NY).

[2] = molecular target: T1, human GC-A (human), P16066; assay: cell-based or functional assay
T1 chain: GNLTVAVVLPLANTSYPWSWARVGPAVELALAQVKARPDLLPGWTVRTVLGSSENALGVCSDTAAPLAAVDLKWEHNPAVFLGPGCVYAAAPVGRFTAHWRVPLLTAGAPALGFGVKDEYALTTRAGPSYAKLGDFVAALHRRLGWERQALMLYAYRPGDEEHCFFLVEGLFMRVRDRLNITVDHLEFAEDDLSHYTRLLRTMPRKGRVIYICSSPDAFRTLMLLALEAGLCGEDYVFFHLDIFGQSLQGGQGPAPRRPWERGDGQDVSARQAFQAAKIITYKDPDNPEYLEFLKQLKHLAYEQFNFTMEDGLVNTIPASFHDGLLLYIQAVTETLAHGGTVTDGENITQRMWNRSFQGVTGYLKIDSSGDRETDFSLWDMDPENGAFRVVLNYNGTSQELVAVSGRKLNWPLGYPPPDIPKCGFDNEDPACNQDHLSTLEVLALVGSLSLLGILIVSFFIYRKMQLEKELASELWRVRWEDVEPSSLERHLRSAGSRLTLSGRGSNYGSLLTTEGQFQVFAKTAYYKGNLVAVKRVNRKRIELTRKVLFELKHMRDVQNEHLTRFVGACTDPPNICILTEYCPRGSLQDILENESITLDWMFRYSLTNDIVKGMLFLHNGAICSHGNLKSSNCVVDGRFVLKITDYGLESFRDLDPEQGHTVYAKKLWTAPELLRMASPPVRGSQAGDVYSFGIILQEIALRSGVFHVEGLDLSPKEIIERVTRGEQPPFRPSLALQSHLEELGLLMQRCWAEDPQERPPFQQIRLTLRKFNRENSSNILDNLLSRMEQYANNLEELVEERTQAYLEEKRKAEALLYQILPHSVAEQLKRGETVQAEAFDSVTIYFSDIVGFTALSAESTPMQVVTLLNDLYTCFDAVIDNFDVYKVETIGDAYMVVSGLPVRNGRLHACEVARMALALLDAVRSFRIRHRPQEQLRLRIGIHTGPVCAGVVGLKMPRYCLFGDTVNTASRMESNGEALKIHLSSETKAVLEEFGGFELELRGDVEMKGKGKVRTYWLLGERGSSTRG

[3] = molecular target: T2, extracellular domain of GC-A recombinant protein with a C-terminal His-tag (human), P16066; assay: SPR (BI-4500), His-tagged GC-A extracellular domain on Ni-NTA chip, peptide as analyte, 25 C
T2 chain: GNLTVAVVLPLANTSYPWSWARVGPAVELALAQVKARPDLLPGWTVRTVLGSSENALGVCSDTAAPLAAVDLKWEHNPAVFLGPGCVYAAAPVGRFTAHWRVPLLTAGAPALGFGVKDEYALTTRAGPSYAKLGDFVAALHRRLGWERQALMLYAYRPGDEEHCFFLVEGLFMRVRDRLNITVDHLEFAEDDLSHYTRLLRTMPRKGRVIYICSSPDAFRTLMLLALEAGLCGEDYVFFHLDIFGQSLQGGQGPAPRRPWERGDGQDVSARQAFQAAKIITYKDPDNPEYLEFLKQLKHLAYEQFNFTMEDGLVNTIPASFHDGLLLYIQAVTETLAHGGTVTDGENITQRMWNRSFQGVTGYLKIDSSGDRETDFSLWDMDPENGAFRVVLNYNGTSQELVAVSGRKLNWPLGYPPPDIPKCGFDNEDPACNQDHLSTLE

[4] = molecular target: T2, extracellular domain of GC-A …; assay: SPR (BI-4500, 25 C); His-tagged GC-A extracellular domain immobilized on Ni-NTA chip; CRRL 191 injected at 0.125, 0.25, 0.5, 1 and 2 nM

Molecule | plasma cGMP levels [1] | EC50 of cGMP production, HEK293 GC-A cells, 10 min stimulation [2] | intracellular cGMP (Mean) at 10^-6 M peptide [2] | intracellular cGMP (Mean) at 10^-7 M peptide [2] | intracellular cGMP (Mean) at 10^-8 M peptide [2] | intracellular cGMP (Mean) at 10^-9 M peptide [2] | intracellular cGMP (Mean) at 10^-10 M peptide [2] | intracellular cGMP (Mean) at 10^-12 M peptide [2] | intracellular cGMP (Mean) at 10^-14 M peptide [2] | Kd [3] | Kd [4]
CC[C@H](C)[C@@H]1NC(=O)[C@H](CCCNC(=N)N)NC(=O)[C@H](CC(=O)O)NC(=O)[C@H](CCSC)NC(=O)[C@H](CCCNC(=N)N)NC(=O)CNC(=O)CNC(=O)[C@H](Cc2ccccc2)NC(=O)[C@@H](NC(=O)[C@H](CO)NC(=O)[C@H](CO)NC(=O)[C@H](CCCNC(=N)N)NC(=O)[C@H](CCCNC(=N)N)NC(=O)[C@H](CC(C)C)NC(=O)[C@@H](N)CO)CSSC[C@@H](C(=O)N[C@@H](CC(N)=O)C(=O)N[C@@H](CO)C(=O)N[C@@H](Cc2ccccc2)C(=O)N[C@@H](CCCNC(=N)N)C(=O)N[C@@H](Cc2ccc(O)cc2)C(=O)O)NC(=O)CNC(=O)[C@H](CC(C)C)NC(=O)CNC(=O)[C@H](CO)NC(=O)[C@H](CCC(N)=O)NC(=O)[C@H](C)NC(=O)CNC1=O [ANP, reference compound] | increase |  |  |  |  |  |  |  |  |  | 
RALLTAPRSLRRSSCFGHKIDRINHVSNLGCNSFRYRITAREDKQGWA (modifications not checked) [CRRL 191] |  | 0.48 nM | 135 | 141 | 152 | 89.9 | 35.6 | 2.57 | 3.07 | 0.128 nM | 0.128 nM

Source: patent publication US20240116990A1, “Compositions and Methods of Treatment Using CRRL 191” (Mayo Foundation for Medical Education and Research, priority 2022, published 2024)
